Test results as given in patent US20210292393A1 (published 2021).
Positions count from the first letter of the chain named.

B1: antibody 528 (antibody, V domains shown)
VH: QVQLVQSGAEVKKPGSSVKVSCKASGGTFNSNSISWVRQAPGQGLEWMGRIIPILDITMYARKFQGRVTISADKSTGTAYMDLSSLRSEDTAVYYCATDRDDSSGDYYYGMDVWGQGTTVTVSS
VL: DIQMTQSPSSLSASVGDRVTITCRASLSISNYLNWYQQKPGKAPNLLIYAASTLQSGVPSRFSGSGSGTDFTLTISSLQPEDFATYYCQQTYITRWTFGQGTKVEIK
B2: antibody 529 (antibody, V domains shown)
VH: QVQLVQSGAEVKKPGASVKVSCKASGYTFTSYGISWVRQAPGQGLEWMGWISAYNGNTNYAQKLQGRVTMTTDTSTSTAYMELRSLRSDDTAVYYCARMLIAAAGTSRDYYGMDVWGQGTTVTVSS
VL: EIVLTQSPDFQSVTPKEKVTITCRASQSIGSSLHWYQQKPDQSPKLLIKYASQSFSGVPSRFSGSGSGTDFTLTINSLEAEDAATYYCHQSSSLPHTFGGGTKVEIK
B3: antibody 530 (antibody, V domains shown)
VH: EVQLVESGGGLVQPGGSLRLSCAASGFTFSSYWMSWVRQAPGKGLEWVANIKQDGSEKYYVDSVKGRFTISRDNAKNSLYLQMNSLRAEDTAVYYCAREPQLWSEYYFDYWGQGTLVTVSS
VL: DIQMTQSPSSLSASVGDRVTITCRASQGISSWLAWYQQKPEKAPKSLIYAASSLQSGVPSRFSGSGSGTDFTLTISSLQPEDFATYYCQQYNSYPPTFGQGTRLEIK
B4: antibody 532 (antibody, V domains shown)
VH: EVQLVESGGGLVQPGGSLRLSCAASGIIVSSNYMSWVRQAPGKGLEWVSVIYSGGSTYYADSVKGRFTISRDNSKNTLYLQMNSLRAEDTAVYYCAREGLVGATLAFDYWGQGTLVTVSS
VL: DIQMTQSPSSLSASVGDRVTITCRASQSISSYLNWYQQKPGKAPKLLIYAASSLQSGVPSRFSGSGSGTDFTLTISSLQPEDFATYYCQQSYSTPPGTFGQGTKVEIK
B5: antibody 535 (antibody, V domains shown)
VH: EVQLVESGGGLIQPGGSLRLSCAASGFTVSSNYMSWVRQAPGKGLEWVSVIYSGGSTYYADSVKGRFTISRDNSKNTLYLQMNSLRAEDTAVYYCARDLTEEGDFWSASSYRRYYYYGMDVWGQGTTVTVSS
VL: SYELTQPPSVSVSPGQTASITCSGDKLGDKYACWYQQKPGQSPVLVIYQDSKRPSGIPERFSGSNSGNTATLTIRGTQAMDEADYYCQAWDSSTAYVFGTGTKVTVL
B6: antibody 552 (antibody, V domains shown)
VH: QVQLVQSGAEVKKPGSSVKVSCKASGGTFSSYGISWVRQAPGQGLEWMGRIIPILGIANYAQKFQGRVTITADKSTSTAYMELSSLRSEDTAVYYCARAVYAAGDDDYYYYYGMDVWGQGTTVTVSS
VL: SYELTQPPSVSVSPGQTARITCSGDALPKQYAYWYQQKPGQAPVVVIYKDSDRPSGIPERFSGSSSGTTVTLTISGVQAEDEADYYCQSADSSGTYQVFGTGTKVSVL
B7: antibody 559 (antibody, V domains shown)
VH: QVQLQESGPGLVKLSETLSLTCTVSGYSISSGYYWGWIRQPPGKGLEWIGSIYHSGSTYYNPSLKSRVTISVDTSKNQFSLKLSSVTAADTAVYYCAREETLGSSWYESYIDYWGQGTLVTVSS
VL: SYVLTQPPSVSVAPGKTARITCGGNNIGSKSVHWYQQKPGQAPVLVIYYDSDRPSGIPERFSGSNSGNTATLTISRVEAGDEADYYCQVWDSSSDHPRVFGGGTKLTVL
B8: antibody 367 (antibody, V domains shown)
VH: QVQLVQSGAEVKKPGASVKVSCKASGYTFTGYYIHWVRQAPGQGLEWMGWINPNSGGTIYAQKFQGRVTMTRDTSISTAYMELSRLTSDDTAVYSCAREPYYDILTGYYAPRRYFDYWGQGTLVTVSS
VL: QSALTQPASVSGSPGQSITISCTGTSSDVGSYNYVSWYLQHPGKAPKLMIYDVSNRPSGVSNRFSGSKSGNTASLTISGLQAEDEADFYCSSYTSRSTYVFGTGTKVTVL
B9: antibody 372 (antibody, V domains shown)
VH: QVQLVESGGGVVQPGRSLRLSCAASGFTFSSYAMHWVRQAPGKGLEWVAVISYDGSNKYYADSVKGRFTISRDNSKNTLYLQMNSLRAEDTAVYYCARDLGTSALLWFGELFLNYGMDVWGQGTTVTVSS
VL: QSALTQPRSVSGSPGQSVTISCTGTSSDVGGYNYVSWYQQHPGKAPKLMIYDVSKRPSGVPDRFSGSKSGNTASLTISGLQAEDEADYYCCSYAGSPILVFGGGTKLTVL
B10: antibody 378 (antibody, V domains shown)
VH: QVQLVQSGAEVKKPGASVKVSCKASGYTFTSYYMHWVRQAPGQGLEWMGIINPSGGSTSYAQKFQGRVTMTRDTSTSTVYMELSSLRSEDTAVYYCARDSGGMDDFWSGYYSPGGDYWGQGTLVTVSS
VL: QSALTQPASVSGSPGQSITISCTGTSSDVGSYNLVSWYQQHPGKAPKLMIYEGSKRPSGVSNRFSGSKSGNTASLTISGLQAEDEADYYCCSYAGSSTWVFGGGTKLTVL
B11: antibody 385 (antibody, V domains shown)
VH: QVQLVESGGGVVQPGRSLRLSCAASGFTFSSYAIHWVRQAPGKGLEWVAVISYDGSNKYYADSVKGRFTISRDNSKNTLYLQMNSLRAEDTAVYYCARPRSGSYWGAFDIWGQGTMVTVSS
VL: QSVLTQPPSVSGAPGQRVTISCTGSSSNIGARYDVHWYQQLPGTAPKLLIYGNSNRPSGVPDRFSGSKSGTSASLAITGLQAEDEADYYCQSYDSSLRGVFGGGTKLTVL
B12: antibody 395 (antibody, V domains shown)
VH: QVQLVQSGSELKKPGASVKLSCQASGYTFSNHAMNWVRQAPGQGLEWMGWINTNTGNPTYAQGFTGRFVFSLDTSVGTAYLHISSLKAEDTAFYYCARASARPGVATNLDFWGQGTLVVVSS
VL: DIQMTQSPSSLSASVGDRVTITCRTSQNIDNYLNWYQQKPGKAPNLLIYAASRLHSGVPSRFSGSGSGTDFTLIISSLQPEDLATYYCQQSYSNPLTFGPGTKVDIR
B13: antibody 405 (antibody, V domains shown)
VH: not shown
VL: B9 VL with P97Y, I98N, L99V
B14: antibody 409 (antibody, V domains shown)
VH: QVTLRESGPALVKPTQTLTLTCTFSGFSLSTSGMCVSWIRQPPGKALEWLALIDWDDDKYYSTSLKTRLTISKDTSKNQVVLTMTNMDPVDTATYYCARTTYYYVSGRRAEFDPWGQGTLVTVSS
VL: NFMLTQPHSVSESPGKTVTISCTGSSGSIASNYVQWYQQRPGSAPTTVIYEDNQRPSGVPDRFSGSIDSSSNSASLTISGLKTEDEADYYCQSYDSSNQGVFGGGTKLTVL
B15: antibody 421 (antibody, V domains shown)
VH: QVQLVESGGGVVQPGRSLRLSCAASGFTFSTYAMHWVRQAPGKGLEWVAVISYDGSNKYYADSVKGRFTISRDNSKNTLYLQMNSLRAEDTAVYYCARGYGSGSYYPLYLYWGQGTLVTVSS
VL: not shown
B16: antibody 422 (antibody, V domains shown)
VH: QVQLVQSGSELKKPGASVKVSCKASGYTFTSYAMNWVRQAPGQGLEWMGWINTNTGNPTYAQGFTGRFVFSLDTSVSTTYLQISSLKAEDTAVYYCARVIGVVTYYYYGMDVWGQGTTVTVSS
VL: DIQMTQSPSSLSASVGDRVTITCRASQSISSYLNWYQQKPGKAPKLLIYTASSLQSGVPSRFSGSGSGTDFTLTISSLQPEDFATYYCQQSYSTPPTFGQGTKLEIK
B17: antibody 423 (antibody, V domains shown)
VH: EVQLVESGGGLIQPGGSLRISCAASGFTVRNNHMSWVRQAPGKGLEWVSVFYRGGTTYYADSVKGRFTISRDDSKNTVDLQMNSLRGEDTAVYYCARGLSVAASGYFDCWGQGTLVTVSS
VL: DIQMTQSPSSVSASVGDTVTITCRANQGISSWLAWYQQVPGKAPELLIYATSTLQSGVPSRFSGSGSGTDFTLTISSLQPEDFATYYCQQANSFPFTFGPGTKVDIK
B18: antibody 431 (antibody, V domains shown)
VH: QVQLVESGGGVVQPGRSLRLSCAASGFTFSSYAMHWVRQAPGKGLEWLAVISYDGSNKYYADSVKGRFTISRDNSKNTLYLQMNSLRAEDTAVYYCARSFRGGYYYGMDVWGQGTTVTVSS
VL: DIQLTQSPSFLSASVGDRVTITCRASQGISSYLAWYQQKPGKAPKLLIYAASTLQSGVPSRFSGSGSGTEFTLTISSLQPEDFATYYCQQLNSYPLFTFGPGTKVDIK
B19: antibody 439 (antibody, V domains shown)
VH: B18 VH with L48V, S99P, F100P, Y104S, G107P, M108F, V110P, T116L
VL: not shown
B20: antibody 446 (antibody, V domains shown)
VH: B11 VH with I34M, R100N, W105F, A107Y, D109Q, I110H, M116L
VL: QSVLTQPPSVSGAPGQRVTISCTGSSSNIGAGYDVHWYQQLPGTAPKLLIYGNSNRPSGVPDRFSGSKSGTSASLAITGLQAEDEADYYCQSYDSSLSGFYVFGTGTKVTVL
B21: antibody 454 (antibody, V domains shown)
VH: B8 VH with V18L, T28I, I34M, N52S, I59K, T87R, T91S, S95Y, A110T, F115L
VL: B8 VL with S31D, L39Q, A45V, N55H, S61T, Q81R, F88Y, R96S
B22: antibody 456 (antibody, V domains shown)
VH: QVQLQQWGAGLLKPSETLSLTCAVYGGSFSGYYWSWIRQPPGKGLEWIGEINHSGSTNYNPSLKSRVTISVDTSKNQFSLKLSSVTAADTAVYYCARDGSGSYYLSYYFDYWGQGTLVTVSS
VL: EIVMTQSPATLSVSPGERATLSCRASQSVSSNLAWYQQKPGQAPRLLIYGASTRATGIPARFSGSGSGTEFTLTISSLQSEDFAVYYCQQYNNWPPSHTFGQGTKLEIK

Target: SARS-CoV-2 full length spike protein, D614G mutant (SARS-CoV-2, UniProt P0DTC2 14-1273)

Binder	median fold over isotype [fold over isotype]
B1	3.71
B2	0.77
B3	8.68
B4	74.9
B5	93.2
B6	23.5
B7	49.5

Target: SARS-CoV-2 full length spike protein, V483A mutant, expressed on CHO cells (SARS-CoV-2, UniProt P0DTC2 14-1273)

Binder	median fluorescence fold over isotype control [fold over isotype]
B8	16.3
B9	18.1
B10	14.3
B11	8.16
B12	8.92
B13	7.51
B14	9.21

Target: SARS-CoV-2 full length spike protein, V483A mutant (SARS-CoV-2, UniProt P0DTC2 14-1273)

Binder	median fluorescence fold over isotype control [fold over isotype]
B15	9.33
B16	15.2
B17	15.3
B18	11.7
B19	9.01
B20	6.16
B21	19.7
B22	8.16

Target: SARS-CoV-2 full length spike protein, V367F mutant (SARS-CoV-2, UniProt P0DTC2 14-1273)

Binder	median fold over isotype [fold over isotype]
B1	31.2
B2	0.98
B3	8.39
B4	45.1
B5	64.5
B6	13.2
B7	25.4
